Assay results as given in article doi:10.1101/2022.05.16.492059 (bioRxiv, 2022).

Target: the molecule itself
Assay: SEC-MALS

B1: PGL-3 (1-452) (domain or fragment, C. elegans, UniProt G5EBV6 1-452, looked up)
chain: MEANKRQIVEVDGIKSYFFPHLAHYLASNDELLVNNIAQANKLAAFVLGATDKRPSNEEIAEMILPNDSSAYVLAAGMDVCLILGDDFRPKFDSGAEKLSQLGQAHDLAPIIDDEKKISMLARKTKLKKSNDAKILQVLLKVLGAEEAEEKFVELSELSSALDLDFDVYVLAKLLGFASEELQEEIEIIRDNVTDAFEACKPLLKKLMIEGPKIDSVDPFTQLLLTPQEESIEKAVSHIVARFEEASAVEDDESLVLKSQLGYQLIFLVVRSLADGKRDASRTIQSLMPSSVRAEVFPGLQRSVFKSAVFLASHIIQVFLGSMKSFEDWAFVGLAEDLESTWRRRAIAELLKKFRISVLEQCFSQPIPLLPQSELNNETVIENVNNALQFALWITEFYGSESEKKSLNQLQFLSPKSKNLLVDSFKKFAQGLDSKDHVNRIIESLEKSSSSE
- stoichiometry N: 2
